Experimental data as given in patent publication US20090317414A1, “CANCER VACCINE COMPRISING A MUCIN 1 (MUC1) T CELL EPITOPE-DERIVED PEPTIDE” (4G VACCINES PTY LTD, priority 2006, published 2009).

Assays:
[1] = biological target: T1, soluble H-2K^b (soluble extracellular domains; heavy chain residues 1-274 with C-terminal His-tag and β2-microglobulin residues 1-99) (mouse); test: inhibition assay with soluble H-2K^b, 23° C.
T1 chain: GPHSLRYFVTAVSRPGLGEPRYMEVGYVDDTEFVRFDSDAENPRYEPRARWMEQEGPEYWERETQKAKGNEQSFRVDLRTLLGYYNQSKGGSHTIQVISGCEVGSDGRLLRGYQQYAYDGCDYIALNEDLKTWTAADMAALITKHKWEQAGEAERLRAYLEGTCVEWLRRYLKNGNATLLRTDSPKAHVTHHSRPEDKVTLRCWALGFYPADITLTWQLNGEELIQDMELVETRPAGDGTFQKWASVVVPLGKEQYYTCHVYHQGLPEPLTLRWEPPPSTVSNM

[2] = biological target: T1, soluble H-2K^b (soluble extracellular …); test: inhibition assay with soluble H-2K^b, 4° C.
[3] = biological target: T1, soluble H-2K^b (soluble extracellular …); test: inhibition assay with soluble H-2K^b, 37° C.

B1: VSV8 (RGYVYQGL), Vesicular stomatitis virus NP52-59 (peptide)
peptide: RGYVYQGL
modifications: not checked
Kd [1]: 27 nM | Kd [2]: 34 nM | Kd [3]: 163 nM
